This is an account of results in article doi:10.1101/2023.01.09.523197 (bioRxiv, 2023).

The data set deals with the molecule itself. Nature of the data set: crystal structure.

B1: Saccharopolyspora erythraea GlnR-DBD (domain or fragment)
chain: DGMLTVGDLVIEESTYTARLKGRALELTYKEFELLKYLAQHAGRVFTRAQLLQEVWGYDFFGGTRTVDVHVRRLRAKLGPEYDSMIGTVRNVGYKFVRPS
In the case of B1, the binding result is listed as “binds”.
